Measurements published in patent publication US20170240629A1 (Hoffmann-La Roche, published 2017).
Where a chain is given by its changes, count along the chain named. Like-named read-outs stand apart in the source and are kept apart here.

Key:
[1] = target: T1, human IL-1beta (human, UniProt P01584 117-269); test: cell-based or functional assay
[2] = target: T1, human IL-1beta; test: cell-based or functional assay; remark: listed apart in the source
[3] = target: T1, human IL-1beta; test: cell-based or functional assay; remark: listed apart in the source
[4] = target: T1, human IL-1beta; test: cell-based or functional assay; remark: listed apart in the source
[5] = target: T1, human IL-1beta; test: SPR inhibition; 10 nM human IL-1beta pre-incubated with antibody, injected over immobilised human IL-1RI (competitor)
Experimental: All experiments were performed at 25° C. using HBS-P (10 mM His, 140 mM NaCl, 0.05% Tween 20 pH 7.4) as running and dilution buffer. Human IL-1RI was immobilized on a Series S CM5 Sensor Chip (GE Healthcare) using standard amine coupling chemistry. […] The surface was regenerated by injecting 10 mM NaOH for 60 sec at a flow rate of 5 μl/min. Bulk refractive index differences were corrected by subtracting the response obtained from a mock surface.

[6] = target: T2, cynomolgus IL-1beta (cynomolgus, UniProt P79182 117-268); test: SPR (BIAcore); antibody captured by anti-Fc, IL-1beta injected
Experimental: (§1) All experiments were performed at 25° C. using HBS-P (10 mM His, 140 mM NaCl, 0.05% Tween 20 pH 7.4) as running and dilution buffer. Anti-human or anti-mouse Fc antibodies were immobilized on a Series S CM5 Sensor Chip (GE Healthcare) using standard amine coupling chemistry. […] The dissociation phase was monitored for 600 sec by washing with running buffer. […] The surface was regenerated by injecting 3 M MgCl2 (for anti-human Fc antibody) or 10 mM Glycine pH 1.5 (for anti-mouse Fc antibody) for 60 sec at a flow rate of 5 μl/min. Bulk refractive index differences were corrected by subtracting the response obtained from a mock surface. Blank injections were subtracted (double referencing). The derived curves were fitted to a 1:1 Langmuir binding model using the BIAevaluation software.

[7] = target: T1, human IL-1beta; test: as above
Experimental: as §1

[8] = target: T1, human IL-1beta; test: cell-based or functional assay; remark: listed apart in the source
[9] = target: T3, human PDGF-BB (human, UniProt P01127 82-190); test: SPR; Fab
T3 construct: also called huPDGF-BB

[10] = target: T3, human PDGF-BB; test: SPR; apparent KD* of the Fab
[11] = target: T3, human PDGF-BB; test: SPR (BIAcore T200); PDGF-BB coupled on CM3 chip, Fab injected
[12] = target: T3, human PDGF-BB; test: cell-based or functional assay
[13] = target: T3, human PDGF-BB; test: cell-based or functional assay; remark: listed apart in the source
[14] = target: T3, human PDGF-BB; test: SPR (BIAcore T200); PDGF-BB coupled on CM3 chip, antibody injected (Example 52); design: t½: unit not given here
[15] = target: T4, human ANG2-RBD-mouse Fc-region fusion (human, UniProt O15123 275-496, limits assumed); test: SPR (BIAcore T200); ANG2-RBD-mouse Fc captured, antibody injected (Example 52)
T4 construct: domain: RBD; also called human ANG2-RBD-murine Fc-region fusion; not shown: mouse Fc-region
T4 sequence (looked up): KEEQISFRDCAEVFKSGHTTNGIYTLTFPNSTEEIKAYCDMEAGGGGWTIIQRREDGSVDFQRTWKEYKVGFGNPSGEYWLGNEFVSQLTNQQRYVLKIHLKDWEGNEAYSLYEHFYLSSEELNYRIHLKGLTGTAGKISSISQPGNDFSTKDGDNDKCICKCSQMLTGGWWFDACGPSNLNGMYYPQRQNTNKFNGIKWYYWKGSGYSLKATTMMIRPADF

[16] = target: T5, ANG2 (UniProt O15123 68-496, limits assumed); test: cell-based or functional assay
T5 sequence (looked up): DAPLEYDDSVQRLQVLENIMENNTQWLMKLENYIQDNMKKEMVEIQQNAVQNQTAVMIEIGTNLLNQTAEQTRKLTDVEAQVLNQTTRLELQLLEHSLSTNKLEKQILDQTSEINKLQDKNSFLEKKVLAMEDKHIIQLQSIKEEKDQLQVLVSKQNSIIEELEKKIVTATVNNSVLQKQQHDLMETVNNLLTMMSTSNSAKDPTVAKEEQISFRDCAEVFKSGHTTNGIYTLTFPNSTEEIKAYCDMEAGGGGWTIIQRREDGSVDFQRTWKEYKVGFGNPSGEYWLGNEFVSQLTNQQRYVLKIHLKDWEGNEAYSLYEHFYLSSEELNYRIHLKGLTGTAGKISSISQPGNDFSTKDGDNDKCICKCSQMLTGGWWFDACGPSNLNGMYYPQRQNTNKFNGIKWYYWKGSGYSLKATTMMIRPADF

[17] = target: T1, human IL-1beta; test: SPR (BIAcore T200); antibody captured by anti-human Fc, human IL-1beta injected (Example 52); design: t 1/2: unit not given here
[18] = target: T1, human IL-1beta; test: SPR (BIAcore); Fab captured by anti-human Fab, IL-1beta injected (Example 55)
Experimental: All experiments were performed at 25° C. using HBS-P (10 mM His, 140 mM NaCl, 0.05% Tween 20 pH 7.4) as running and dilution buffer. Anti-human Fc or anti-human Fab antibodies were immobilized on a Series S CM5 Sensor Chip (GE Healthcare) using standard amine coupling chemistry. […] The dissociation phase was monitored for 600 sec by washing with running buffer. The surface was regenerated by injecting 3 M MgCl2 (for anti-human Fc antibody) or 10 mM Glycine pH 1.5 (for anti-mouse Fc antibody) for 60 sec at a flow rate of 5 μl/min. Bulk refractive index differences were corrected by subtracting the response obtained from a mock surface. Blank injections were subtracted (double referencing). The derived curves were fitted to a 1:1 Langmuir binding model using the BIAevaluation software.

[19] = target: T2, cynomolgus IL-1beta; test: SPR (BIAcore); antibody captured by anti-Fc, IL-1beta injected; remark: listed apart in the source
[20] = target: T1, human IL-1beta; test: as above; remark: listed apart in the source

T3 sequence (P01127 82-190 limits assumed): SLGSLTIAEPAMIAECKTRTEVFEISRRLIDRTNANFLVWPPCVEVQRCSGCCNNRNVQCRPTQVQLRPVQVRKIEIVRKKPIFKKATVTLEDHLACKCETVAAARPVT

B1: Canakinumab (antibody, V domains shown)
VH: QVQLVESGGGVVQPGRSLRLSCAASGFTFSVYGMNWVRQAPGKGLEWVAIIWYDGDNQYYADSVKGRFTISRDNSKNTLYLQMNGLRAEDTAVYYCARDLRTGPFDYWGQGTLVTVSS
VL: EIVLTQSPDFQSVTPKEKVTITCRASQSIGSSLHWYQQKPDQSPKLLIKYASQSFSGVPSRFSGSGSGTDFTLTINSLEAEDAAAYYCHQSSSLPFTFGPGTKVDIKR
B1 was tested, and the “IC50, inhibition of ICAM-1 expression upon IL-1beta stimulation of A549 cells” value (from here on “IC50, inhibition … of A549 cells”) [1] was 0.31 nM, the “IC50, inhibition of proliferation of D10 cells” value [2] was 1.99 nM and the “IC50, inhibition of ICAM-1 expression upon IL-1beta stimulation of HUVEC cells” value [3] was 9.02 nM. For the same binder, the “EC50, reduction of IL-6 expression upon IL-1beta stimulation of A549 cells” value (“EC50, reduction” for short) [4] was 0.0864 µg/mL, the IC50 [5] was 1.6 nM and the Kd [6] was 13.2 nM. It also gave a koff [6] of 0.0284 s⁻¹, a kon [6] of 2.15e+06 M⁻¹ s⁻¹ and a Kd [7] of 0.02 nM. For the same binder, the koff [7] was 5.2e-05 s⁻¹, the kon [7] was 2.78e+06 M⁻¹ s⁻¹ and the “EC50, reduction” value [8] was 0.12 nM.

B2: antibody 0107 (Fab, V domains shown)
VH: EVQLVESGGGLVQPGGSLRLSCAASGFTFSSYWMSWVRQAPEKGLEWVSTISDGGGLTYYADSVKGRFTISRDNAKNSLYLQMNSLRAEDTAVYYCAESGGYTDWLFGYWGQGTLVTVSS
VL: not shown
For B2, the T½ [9] was 31.9 min, the Kd [10] was 2 nM and the Kd [11] was 2 nM. It also gave a koff [11] of 0.000362 s⁻¹, a kon [11] of 195000 M⁻¹ s⁻¹ and a t½ [11] of 31.9 min.

B3: antibody 0085 FAB (Fab, V domains shown)
VH: B2 VH
VL: not shown
B3 was tested, and the “IC50 Proliferation human pericytes” value [12] was 0.012 nM and the “IC50 Migration-Inhibition human pericytes” value [13] was 0.27 nM.

B4: antibody 0106 (Fab, V domains shown)
VH: B2 VH
VL: not shown
B4 was tested, and the T½ [9] was 30.9 min, the Kd [10] was 2 nM and the Kd [11] was 2 nM. It also gave a koff [11] of 0.000374 s⁻¹, a kon [11] of 202000 M⁻¹ s⁻¹ and a t½ [11] of 30.9 min. For the same binder, the Kd [14] was 1 nM, the koff [14] was 0.000291 s⁻¹ and the kon [14] was 294000 M⁻¹ s⁻¹. For the same binder, the t½ [14] was 40.

B5: antibody 0144 (bispecific antibody, human IgG1, kappa, L234A L235A)
chain 1: SYVLTQPPSVSVAPGQTARITCGGNNIGSKSVHWYQQKPGQAPVLVVYDTSDRPSGIPERFSGSNSGNTATLTISRVEAGDEADYYCQVWDSSSDHWVFGGGTKLTVLSSASTKGPSVFPLAPSSKSTSGGTAALGCLVKDYFPEPVTVSWNSGALTSGVHTFPAVLQSSGLYSLSSVVTVPSSSLGTQTYICNVNHKPSNTKVDKKVEPKSCDKTHTCPPCPAPEAAGGPSVFLFPPKPKDTLMASRTPEVTCVVVDVSHEDPEVKFNWYVDGVEVHNAKTKPREEQYNSTYRVVSVLTVLAQDWLNGKEYKCKVSNKALGAPIEKTISKAKGQPREPQVYTLPPCRDELTKNQVSLWCLVKGFYPSDIAVEWESNGQPENNYKTTPPVLDSDGSFFLYSKLTVDKSRWQQGNVFSCSVMHEALHNAYTQKSLSLSPGK
chain 2: not shown
chain 3: not shown
chain 4: not shown
notes: also called anti-PDGF-B/ANG2 antibody; clone 0144-0004
B5 was tested, and the Kd [15] was 17 nM, the koff [15] was 0.00155 s⁻¹ and the kon [15] was 90600 M⁻¹ s⁻¹. The t½ [15] was 7.43 min, the “IC50 Proliferation 3T3” value [12] was 0.02 nM and the “IC50 Proliferation human pericytes” value [12] was 0.03 nM. For the same binder, the “IC50 Migration-Inhibition human pericytes” value [13] was 0.06 nM, the “IC50 Phospho-Inhibition human pericytes” value [13] was 0.055 nM and the “ANG2 specific pTie2-ELISA, activity against the anti-ANG2/VEGF antibody reported in WO 2014/09465” value [16] was 6 fold. It also gave a Kd [14] of 3 nM, a koff [14] of 0.000215 s⁻¹ and a kon [14] of 83100 M⁻¹ s⁻¹. It also gave a t½ [14] of 53.

B6: huH34-2 (antibody, V domains shown)
VH: QVQLVQSGAEVKKPGASVKVSCKASGYTFTGYYMHWVRQAPGQGLEWIGYISSYNAFTTYNQKFRGRATFTVDTSISTAYMELSRLRSDDTAVYYCVRSDYYGTSLYWGQGTLVTVSS
VL: EIVLTQSPATLSLSPGERATLSCRASSSVSYMHWSQQKPGQAPRLLIYSTSNLASGIPARFSGSGSGTDFTLTISSLEPEDFAVYYCHQWSNYYTFGQGTKLEIK
notes: Humanized antibody expressed in HEK cells; also called huH34-2 bivalent; humanized version of H34
With B6 the “IC50, inhibition … of A549 cells” value [1] was 0.23 nM, the “IC50, inhibition of proliferation of D10 cells” value [2] was 0.83 nM and the “IC50, inhibition of ICAM-1 expression upon IL-1beta stimulation of HUVEC cells” value [3] was 0.3 nM. It also gave a Kd [17] of 0.05 nM, a koff [17] of 0.000115 s⁻¹ and a kon [17] of 2.43e+06 M⁻¹ s⁻¹. For the same binder, the “t 1/2” value [17] was 101, the Kd [6] was 0.05 nM and the koff [6] was 0.000118 s⁻¹. The kon [6] was 2.2e+06 M⁻¹ s⁻¹, the Kd [7] was 0.06 nM and the koff [7] was 0.00011 s⁻¹. For the same binder, the kon [7] was 1.93e+06 M⁻¹ s⁻¹ and the “EC50, reduction” value [8] was 0.11 nM.

B7: antibody 0032 (bispecific antibody, V domains shown)
VH 1: EVQLVESGGGLVQPGGSLRLSCAASGYDFTHYGMNWVRQAPGKGLEWVGWINTYTGEPTYAADFKRRFTFSLDTSKSTAYLQMNSLRAEDTAVYYCAKYPYYYGTSHWYFDVWGQGTLVTVSS
VL 1: DIQLTQSPSSLSASVGDRVTITCSASQDISNYLNWYQQKPGKAPKVLIYFTSSLHSGVPSRFSGSGSGTDFTLTISSLQPEDFATYYCQQYSTVPWTFGQGTKVEIK
VH 2: B6 VH
VL 2: B6 VL
notes: CrossMab; only variable domains are tied to it; also called anti-IL-1beta/VEGF antibody
B7 gave a Kd [17] of 0.12 nM, a koff [17] of 0.000305 s⁻¹ and a kon [17] of 2.49e+06 M⁻¹ s⁻¹. For the same binder, the “t 1/2” value [17] was 38 and the “EC50, reduction” value [4] was 0.0387 µg/mL.

B8: huH34-3 (antibody, V domains shown)
VH: B6 VH with N55S
VL: B6 VL
notes: VH = 11 and VL = 16 read by analogy with huH34-2
B8 was tested, and the “IC50, inhibition … of A549 cells” value [1] was 2.23 nM, the Kd [6] was 0.22 nM and the koff [6] was 0.000491 s⁻¹. For the same binder, the kon [6] was 2.21e+06 M⁻¹ s⁻¹, the Kd [7] was 0.15 nM and the koff [7] was 0.000302 s⁻¹. For the same binder, the kon [7] was 1.97e+06 M⁻¹ s⁻¹ and the “EC50, reduction” value [8] was 1.09 nM.

B9: huH34-2 Fab (Fab, V domains shown)
VH: B6 VH
VL: B6 VL
notes: also called huH34-2 Fab-fragment
Work on B9 yielded a Kd [18] of 0.06 nM, a koff [18] of 0.000111 s⁻¹ and a kon [18] of 1.81e+06 M⁻¹ s⁻¹.

B10: huH34-1 (antibody, V domains shown)
VH: B6 VH with I48M, N55S, A56G, N61A, R65Q, A68V, F70M, V72R, V97A
VL: B6 VL
notes: VH = 01 and VL = 16 read by analogy with huH34-2 (VH 06, VL 16); Humanized
For B10, the “IC50, inhibition … of A549 cells” value [1] was greater than 7 nM, the Kd [6] was 1.31 nM and the koff [6] was 0.00212 s⁻¹. For the same binder, the kon [6] was 1.61e+06 M⁻¹ s⁻¹, the Kd [7] was 1.02 nM and the koff [7] was 0.00151 s⁻¹. The kon [7] was 1.49e+06 M⁻¹ s⁻¹ and the “EC50, reduction” value [8] was 5.52 nM.

B11: H34 + C52aS mutations (antibody, V domains shown)
VH: EVQLQQSGPELVKTGASVKISCKASGYSFTGYYMHWVKQSHGKSLEWIGYISSYNAFTTYNQRFRGKATFTVDTSSSTAYMQFNSLTSEDSAVYYCVRSDYYGTSLYWGQGTTLTVSS
VL: QIVLTQSPAIMSASLGEEITLTCSASSSVSYMHWSQQKSGSSPKLLIYSTSNLASGVPSRFSGSGSGTFYSLTISSVEAEDAADYYCHQWSNYYTFGGGTKLEIK
Work on B11 yielded a Kd [6] of 0.51 nM, a koff [6] of 0.000728 s⁻¹ and a kon [6] of 1.43e+06 M⁻¹ s⁻¹. It also gave a Kd [7] of 0.4 nM, a koff [7] of 0.000645 s⁻¹ and a kon [7] of 1.6e+06 M⁻¹ s⁻¹. For the same binder, the Kd [19] was 0.51 nM, the koff [19] was 0.000728 s⁻¹ and the kon [19] was 1.43e+06 M⁻¹ s⁻¹. For the same binder, the Kd [20] was 0.4 nM, the koff [20] was 0.000645 s⁻¹ and the kon [20] was 1.6e+06 M⁻¹ s⁻¹.
